Common to all, as to conditions: both partners purified
For assay [1], the target named is T1, Mature Pertactin (Prn) (Bordetella pertussis, strain  …).
T1 construct: pertactin (Prn) of Bordetella pertussis, mature passenger domain; the legend on D1:p9 names 1DAB instead; also called wild-type Prn; wild type Prn
T1 chain: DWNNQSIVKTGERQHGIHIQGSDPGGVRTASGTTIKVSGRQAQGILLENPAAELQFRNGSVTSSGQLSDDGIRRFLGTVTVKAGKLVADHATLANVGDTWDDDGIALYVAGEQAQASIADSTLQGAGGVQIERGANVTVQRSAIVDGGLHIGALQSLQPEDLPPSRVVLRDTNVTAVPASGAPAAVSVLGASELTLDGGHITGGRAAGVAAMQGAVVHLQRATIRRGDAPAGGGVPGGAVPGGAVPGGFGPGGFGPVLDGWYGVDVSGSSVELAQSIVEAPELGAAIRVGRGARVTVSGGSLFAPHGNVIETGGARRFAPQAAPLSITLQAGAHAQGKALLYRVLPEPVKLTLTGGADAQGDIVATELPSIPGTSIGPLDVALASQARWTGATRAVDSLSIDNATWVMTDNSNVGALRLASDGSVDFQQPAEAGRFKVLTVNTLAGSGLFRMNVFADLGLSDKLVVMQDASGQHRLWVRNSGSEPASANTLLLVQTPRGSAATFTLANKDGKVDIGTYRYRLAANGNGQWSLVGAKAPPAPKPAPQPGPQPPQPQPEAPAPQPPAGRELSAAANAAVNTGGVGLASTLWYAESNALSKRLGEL
In words: BLI; mAb (10 nM) loaded on anti-mouse IgG Fc (AMC) biosensors, dipped into Prn at 50, 25, 12.5, 6.25, 3.125 and 1.56 nM; kinetic buffer (HEPES buffer with 0.01% BSA and 0.002% Tween-20); Octet Red96; 1:1 binding model, global fit, single replicate.

Assay [2] concerns the target T2, mature pertactin (Prn), wild type (Bordetella pertussis, strain  …).
T2 construct: Pertactin (Prn) of Bordetella pertussis, mature N-terminal passenger domain (63 kDa), cut from the precursor; Kept in 0.06% C10E5 detergent for native MS; also called Prn antigen; wild-type Prn
T2 chain: T1 chain
In words: native MS; titration: fixed 2 µM mAb, Prn 0.5 µM to 8 µM, 250 mM ammonium acetate with 0.06% C10E5.

Assay [3] concerns the target T3, ΔC-term Prn variant (Bordetella pertussis, strain  …, point mutant).
T3 construct: Pertactin (Prn) of Bordetella pertussis, mature passenger domain from which 64 residues at the C-terminus (with the R2 repeat region; unstructured in the X-ray structure) were truncated; also called ΔC-terminal
T3 chain: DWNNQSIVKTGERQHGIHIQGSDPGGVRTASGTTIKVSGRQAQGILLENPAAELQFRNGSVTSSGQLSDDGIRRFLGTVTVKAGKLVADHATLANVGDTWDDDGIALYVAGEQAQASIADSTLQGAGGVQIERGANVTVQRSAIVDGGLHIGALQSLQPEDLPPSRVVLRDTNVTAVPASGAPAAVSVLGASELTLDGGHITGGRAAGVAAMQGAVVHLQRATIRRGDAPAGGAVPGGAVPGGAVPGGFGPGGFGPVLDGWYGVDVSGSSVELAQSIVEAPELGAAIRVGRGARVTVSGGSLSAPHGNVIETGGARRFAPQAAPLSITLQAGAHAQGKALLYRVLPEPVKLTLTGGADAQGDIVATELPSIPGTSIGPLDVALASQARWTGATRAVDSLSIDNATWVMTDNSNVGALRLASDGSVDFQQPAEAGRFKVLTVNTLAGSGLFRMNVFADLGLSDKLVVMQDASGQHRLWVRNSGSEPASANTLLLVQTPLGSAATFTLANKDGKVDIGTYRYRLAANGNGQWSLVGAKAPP
The assay is described as follows: native MS; 2 µM mAb and 2 µM Prn or Prn variant (equimolar), 250 mM ammonium acetate with 0.06% C10E5, 1 hour at room temperature, nano-ESI on Q Exactive UHMR.

Numbering of substitutions follows the chain as printed.

B1: 2B1 monoclonal antibody (antibody, V domains shown)
VH: QVQLQQSGPELVKPGASVKISCKASGYSFTDYNMYWVKQSHGKSLEWIGYFDPYNGGIYYNQNFKGRATLTVDKSSSTAFMHLNSLTSEDSAVYYCARGGGWFRGFTYWGQGTLVTVSR
VL: IQMTQSTSSLSASLGDRVTISCRASQDISNYLNWYQQKPDGTLNLLIYYTSRLHSGVPSRFSGSGSGTDYSLTISNLEQEDIATYFCQQGNTLPYTFGGGTKLEIK
notes: 2B1 HC, whole heavy chain as printed: variable region with mouse IgG2a constant domains; 2B1 LC, whole light chain as printed; full-length mouse IgG2a; measured mass 149,064 Da; also called 2B1 mAb; 2B1 Ab; source: ExpiCHO-S, transfected, purified (HiTrap Protein A); copies: 2 + 2
With B1, the Kd in assay [1] is < 1 nM.

B2: 1E7 monoclonal antibody (antibody, V domains shown)
VH: QVQLQQPAAELARPGASVKMSCRASGYTFTTYTMHWVKQRPGQGLEWIGYINPSSGYTDYNQKFRDKITLTADKSSSTAYMQLSSLTSGDSAVYYCAREDYYGQGFTYWGQGTLVTVSR
VL: B1 VL with Q2V, L43V, N44K, T92M, L93F, Y95W, I105L
notes: 1E7 HC, whole heavy chain as printed: variable region with mouse IgG2a constant domains; a predicted N-linked glycosylation site (NPS) in CDR2 is highlighted; 1E7 LC, whole light chain as printed; full-length mouse IgG2a; measured mass 149,106 Da; also called 1E7 mAb; 1E7 Ab; source: ExpiCHO-S, transfected, purified (HiTrap Protein A); copies: 2 + 2
Turning to B2, in assay [1], the Kd is < 1 nM.

B3: 1E7 monoclonal antibody (antibody, V domains shown)
VH: B2 VH
VL: B1 VL with Q2V, L43V, N44K, T92M, L93F, Y95W, I105L
notes: variable region of 1E7; mouse IgG2a heavy chain constant domains; mouse light chain constant domain; Full-length mouse IgG2a; source: ExpiCHO-S, transfected, purified (Protein A); copies: 2 + 2
With B3, the “stoichiometry N” value in assay [2] stood at 2 Prn per mAb.

B4: 2B1 monoclonal antibody (antibody, V domains shown)
VH: B1 VH
VL: B1 VL
notes: variable region of 2B1; mouse IgG2a heavy chain constant domains; mouse light chain constant domain; Full-length mouse IgG2a; source: ExpiCHO-S, transfected, purified (Protein A); copies: 2 + 2
With B4, the “stoichiometry N” value in assay [2] was 2 Prn per mAb.

B5: PeM-19 monoclonal antibody (R2-specific) (antibody, V domains shown)
VH: EVQLQQSGPELVKPGASVKIPCKASGYTFTDYNMDWVKQSHGKSLEWIGDINPNTGETIYNQKFEGKASLTVDKSSNTVYMELRSLTSEDTAVYYCARVPFYFDYWGQGTTLTVSR
VL: DIVMSQSPSSLTVSVGEKVTMSCKSSQSLLYSRDQKNYLAWYQQKPGQSPKMLIHWASTRASGVPDRFTGSGSGTDFTLTISSVKAEDLAVYYCQQYYFYPRTFGGGTKLELK
notes: variable region of PeM-19; mouse IgG2a heavy chain constant domains; mouse light chain constant domain; the methods describe the IgG2a format for the anti-pertactin antibodies in general; also called PeM-19 Ab; source: ExpiCHO-S, transfected, purified (Protein A); copies: 2 + 2
Turning to B5, the binding result in assay [3] is “no binding (tested: 2 µM each)”.

B6: 2E9 monoclonal antibody (antibody, V domains shown)
VH: QVQLQQSGPELVKPGASVKMSCKASGYTFTSNYIHWMKQRPGQGLEWIGWIYPGDGSSKYNEKFKGKTTLTADRSSSTAYMLLSSLTSEDSAIYFCANYFYAMDQWGQGTSVTVSR
VL: IVLTQSHKFMSTSVGDRVSITCKASQDVSTAVAWYQQKPGQSPKLLIYWASTRHTGVPDRFTGSGSGTDYTLTISSVQAEDLALYYCQQHYSTPWTFGGGTKLEIK
notes: 2E9 HC, whole heavy chain as printed: variable region with mouse IgG2a constant domains; 2E9 LC, whole light chain as printed; full-length mouse IgG2a; measured mass 147,603 Da; also called 2E9 mAb; 2E9 Ab; source: ExpiCHO-S, transfected, purified (HiTrap Protein A); copies: 2 + 2
On to B6, for which the equilibrium dissociation constant (Kd) in assay [1] is < 1 nM.

B7: 1F2 monoclonal antibody (antibody, V domains shown)
VH: EVQLVESGGGLVKPGESLKLSCAASGFTFNSYTMSWVRQTPEKRLEWVATISSGGSYTYYPDSVKGRFTISRDNAKNTLYLQMSSLKSEDTAMYYCIRVGGLFDYWGQGTTLTVSR
VL: B6 VL with V2Q, L3M, T4I, Y70F, S76G, S92T
notes: 1F2 HC, whole heavy chain as printed: variable region with mouse IgG2a constant domains; 1F2 LC, whole light chain as printed; full-length mouse IgG2a; measured mass 148,317 Da; also called 1F2 mAb; 1F2 Ab; source: ExpiCHO-S, transfected, purified (HiTrap Protein A); copies: 2 + 2
For the molecule B7, the Kd in assay [1] is < 1 nM.

B8: 1F2 monoclonal antibody (antibody, V domains shown)
VH: B7 VH
VL: B6 VL with V2Q, L3M, T4I, Y70F, S76G, S92T
notes: variable region of 1F2; mouse IgG2a heavy chain constant domains; mouse light chain constant domain; Full-length mouse IgG2a; also called 1F2 antibody; source: ExpiCHO-S, transfected, purified (Protein A); copies: 2 + 2
In the case of B8, the “stoichiometry N” value in assay [2] was found to be 2 Prn per mAb.

B9: 2E9 monoclonal antibody (antibody, V domains shown)
VH: B6 VH
VL: B6 VL
notes: variable region of 2E9; mouse IgG2a heavy chain constant domains; mouse light chain constant domain; Full-length mouse IgG2a; also called 2E9 mAb; source: ExpiCHO-S, transfected, purified (Protein A); copies: 2 + 2
With B9, the “stoichiometry N” value in assay [2] turned out to be 2 Prn per mAb.

For the origin of these results see publication PMC12994607, “Screening pertactin-specific antibodies and evaluating competitive epitope recognition by native mass spectrometry” (Chemical Science, 2026).
